Assay [1] has as its target CDHR3 Cys529→Tyr variant (human) (UniProt Q6ZTQ4). The assay can be described thus: cell-based or functional assay.
For assay [2] the target is unchanged. The assay can be described thus: virus bound to HeLa-E8 monolayers, viral RNA by real-time PCR.
Assay [3] has the same target. Briefly: virus bound to HeLa-E8 cells 2 h p.i., viral RNA by real-time PCR.

Sequence of UniProt Q6ZTQ4 (Q6ZTQ4 other isoform, or with tags, fused parts or gaps mutant): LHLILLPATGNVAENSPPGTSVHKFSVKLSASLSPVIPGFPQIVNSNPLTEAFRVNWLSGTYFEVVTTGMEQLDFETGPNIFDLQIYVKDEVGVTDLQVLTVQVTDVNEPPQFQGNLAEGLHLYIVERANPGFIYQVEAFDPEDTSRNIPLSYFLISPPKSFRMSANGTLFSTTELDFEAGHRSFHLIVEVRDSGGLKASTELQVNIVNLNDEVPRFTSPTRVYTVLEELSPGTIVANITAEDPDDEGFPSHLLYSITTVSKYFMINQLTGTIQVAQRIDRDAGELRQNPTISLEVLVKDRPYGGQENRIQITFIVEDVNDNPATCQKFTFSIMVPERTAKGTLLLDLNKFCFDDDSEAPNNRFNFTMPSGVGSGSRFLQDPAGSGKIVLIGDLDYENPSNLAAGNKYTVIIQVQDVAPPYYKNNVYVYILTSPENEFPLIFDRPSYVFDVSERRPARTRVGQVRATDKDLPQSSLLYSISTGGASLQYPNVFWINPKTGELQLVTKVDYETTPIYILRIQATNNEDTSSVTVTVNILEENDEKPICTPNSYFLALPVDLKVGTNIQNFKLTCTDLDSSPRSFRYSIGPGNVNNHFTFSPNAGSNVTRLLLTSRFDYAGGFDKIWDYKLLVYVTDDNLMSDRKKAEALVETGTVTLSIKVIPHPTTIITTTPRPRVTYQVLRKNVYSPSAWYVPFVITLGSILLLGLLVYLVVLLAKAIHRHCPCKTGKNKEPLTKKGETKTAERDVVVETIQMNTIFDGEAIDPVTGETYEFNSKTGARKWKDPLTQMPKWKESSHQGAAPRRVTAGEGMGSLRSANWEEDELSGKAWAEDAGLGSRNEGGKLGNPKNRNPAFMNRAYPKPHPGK

For HeLa-E8 adapted RV-C15 (RV-C15a), the replication in HeLa-E8 compared to control HeLa cells (orders of magnitude) in assay [1] is 2. The fold increase of virus binding against the parental isolate in assay [2] is over 10 fold. This substance also gave a binding compared to that of RV-C15-wt in assay [3] of over 1 log.

Source of the values: patent publication US20170082609A1.
